Measurements as given in patent publication US6939707B2, “Isolated nucleic acid molecules which encode GAGE genes and uses thereof” (Ludwig Institute for Cancer Research, priority 1993, dated 2005).

What was measured:
CTL 76/6 = test: TNF release / recognition by CTL 76/6 of COS cells cotransfected with GAGE cDNA and HLA-Cw6 cDNA; format: cell-based, human; settings: COS cells transfected with cDNA together with HLA-Cw6 cDNA (FIG. 2, FIG. 6)
Experimental: Following preparation of the library described in Example 3, the cDNA was transfected into eukaryotic cells. The transfections, described herein, were carried out in duplicate. Samples of COS-7 cells were seeded, at 15,000 cells/well into tissue culture flat bottom microwells, in Dulbecco's modified Eagles Medium (“DMEM”) supplemented with 10% fetal calf serum. The cells were incubated overnight at 37° C., medium was removed and then replaced by 50 μl/well of DMEM medium containing 10% Nu serum, 400 μg/ml DEAE-dextran, and 100 μM chloroquine, plus 100 ng of the plasmids. […] As a result, cDNA for each of the HLA molecules which could present the antigen (A1, B37, Cw6) was used, separately, to cotransfect the cells. Specifically, one of 28 ng of the gene encoding HLA-A1 cloned into pCD-SRα, 50 ng of cDNA for HLA-B37 in pcDNA 1/Amp, or 75 ng of cDNA for HLA-Cw6 in pcDNAI-Amp, using the same protocols as were used for transfeclion with the library.
Transfection was carried out in duplicate wells, but only 500 pools of the HLA-Cw6 transfectants could be tested in single wells. Following four hours of incubation at 37° C., the medium was removed, and replaced by 50 μl of PBS containing 10% DMSO. This medium was removed after two minutes and replaced by 200 μl of DMEM supplemented with 10% FCS.
(§1) Following this change in medium, COS cells were incubated for 24-48 hours at 37° C. Medium was then discarded, and 1000-3000 cells of CTL clone 76/6 were added, in 100 μl of Iscove's medium containing 10% pooled human serum supplemented with 20-30 U/ml of recombinant IL-2. Supernatant was removed after 24 hours, and TNF content was determined in an assay on WEHI cells, as described by Traversari et al., Immunogenetics 35: 145-152 (1992), the disclosure of which is incorporated by reference.
The bacteria of the selected pool were cloned, and 600 clones were tested. Plasmid DNA was extracted therefrom, transfected into a new sample of COS cells in the same manner as described supra, and the cells were again tested for stimulation of CTL clone 76/6. Ninety-four positive clones were found. One of these, referred to as cDNA clone 2D6, was tested further. In a comparative test COS cells were transfected with cDNA clone 2D6 and the HLA-Cw6 cDNA, HLA-Cw6 cDNA alone, or cDNA 2D6 alone. Control cell lines MZ2-MEL F and MZ2-MEL F^+ were also used. TNF release into CTL supernatant was measured by testing it on WEHI cells, as referred to supra. The number of surviving WEHI cells was measured by optical density after incubation of the cells with MTT.
To assess whether the change at position 2 affected the antigenicity of the peptide, cDNA of the 6 GAGE cDNAs were individually transfected into COS cells together with the cDNA of HLA-Cw6, and the transfectants were tested for recognition by CTL 76/6 as described, supra. Only GAGE-1 and GAGE-2 transfected cells were recognized, showing that the modified peptide encoded by GAGE-3, 4, 5 and 6 was not antigenic in the context of this experiment.

CTL 22/23 = test: TNF production by CTL 22/23 on COS-7 cells cotransfected with HLA-A29 and GAGE cDNA; format: cell-based, human; settings: COS-7 cells transfected with HLA-A29 and the cDNA, 24 hours (FIG. 7)
Experimental: as §1
Once positive HLA-A29 clones were isolated, these were transfected into COS-7 using the DEAE-dextran chloroquine method out supra. In brief, 1.5×10^4 COS-7 cells were treated with 50 ng of plasmid pcDNA-I/Amp containing HLA-A29, and 100 ng of cDNA containing cDNA for one of the GAGE sequences mentioned supra, or one of the prior art MAGE or BAGE sequences in plasmid pcDNAα-I/Amp or pcDSR-α, respectively. The transfectants were then incubated for 24 hours at 37° C.
The transfectants were then tested for their ability to stimulate TNF production by CTLs, using the assay explained at the end of example, 4, supra.

B1: GAGE-4: cDNA highly related to GAGE, from MZ2-MEL.43 library (nucleic acid)
DNA: CGCCAGGGAGCTGTGAGGCAGTGCTGTGTGGTTCCTGCCGTCCGGACTCTTTTTCCTCTACTGAGATTCATCTGTGTGAAATATGAGTTGGCGAGGAAGATCGACCTATTATTGGCCTAGACCAAGGCGCTATGTACAGCCTCCTGAAATGATTGGGCCTATGCGGCCCGAGCAGTTCAGTGATGAAGTGGAACCAGCAACACCTGAAGAAGGGGAACCAGCAACTCAACGTCAGGATCCTGCAGCTGCTCAGGAGGGAGAGGATGAGGGAGCATCTGCAGGTCAAGGGCCGAAGCCTGAAGCTGATAGCCAGGAACAGGGTCACCCACAGACTGGGTGTGAGTGTGAAGATGGTCCTGATGGGCAGGAGATGGACCCGCCAAATCCAGAGGAGGTGAAAACGCCTGAAGAAGGTGAAAAGCAATCACAGTGTTAAAAGAAGGCACGTTGAAATGATGCAGGCTGCTCCTATGTTGGAAATTTGTTCATTAAAATTCTCCCAATAAAGCTTTACAGCCTTCTGCAAAAAAAAAAAAAAAA
CTL 76/6
  recognition by CTL 76/6 (TNF release): not antigenic
CTL 22/23
  stimulation of TNF production by CTL clone 22/23: high levels of TNF production

B2: GAGE-3: cDNA highly related to GAGE, from MZ2-MEL.43 library (nucleic acid)
DNA: CTCATATTTCACACAGATGAGTTGGCGAGGAAGATCGACCTATTATTGGTCTAGGCCAATAATAGGTCGATCTTCCTCGCCAACTCATATTTCACACAGATGAATCTCAGTAGAGGAAAATCGACCTATTATTGGCCTAGACCAAGGCGCTATGTACAGCCTCCTGAAGTGATTGGGCCTATGCGGCCCGAGCAGTTCAGTGATGAAGTGGAACCAGCAACACCTGAAGAAGGGGAACCAGCAACTCAACGTCAGGATCCTGCAGCTGCTCAGGAGGGAGAGGATGAGGGAGCATCTGCAGGTCAAGGGCCGAAGCCTGAAGCTGATAGCCAGGAACAGGGTCACCCACAGACTGGGTGTGAGTGTGAAGATGGTCCTGATGGGCAGGAGATGGACCCGCCAAATCCAGAGGAGGTGAAAACGCCTGAAGAAGGTGAAAAGCAATCACAGTGTTAAAAGAAGGCACGTTGAAATGATGCAGGCTGCTCCTATGTTGGAAATTTGTTCATTAAAATTCTCCCAATAAAGCTTTACAGCCTTCTGCAAAGAAAAAAAAAAAA
CTL 76/6
  recognition by CTL 76/6 (TNF release): not antigenic
CTL 22/23
  stimulation of TNF production by CTL clone 22/23: high levels of TNF production

B3: GAGE-1: cDNA coding for GAGE tumor rejection antigen precursor, SEQ ID NO: 1 (nucleic acid)
DNA: CTGCCGTCCGGACTCTTTTTCCTCTACTGAGATTCATCTGTGTGAAATATGAGTTGGCGAGGAAGATCGACCTATCGGCCTAGACCAAGACGCTACGTAGAGCCTCCTGAAATGATTGGGCCTATGCGGCCCGAGCAGTTCAGTGATGAAGTGGAACCAGCAACACCTGAAGAAGGGGAACCAGCAACTCAACGTCAGGATCCTGCAGCTGCTCAGGAGGGAGAGGATGAGGGAGCATCTGCAGGTCAAGGGCCGAAGCCTGAAGCTGATAGCCAGGAACAGGGTCACCCACAGACTGGGTGTGAGTGTGAAGATGGTCCTGATGGGCAGGAGATGGACCCGCCAAATCCAGAGGAGGTGAAAACGCCTGAAGAAGAGATGAGGTCTCACTATGTTGCCCAGACTGGGATTCTCTGGCTTTTAATGAACAATTGCTTCTTAAATCTTTCCCCACGGAAACCTTGAGTGACTGAAATATCAAATGGCGAGAGACCGTTTAGTTCCTATCATCTGTGGCATGTGAAGGGCAATCACAGTGTTAAAAGAAGACATGCTGAAATGTTGCAGGCTGCTCCTATGTTGGAAAATTCTTCATTGAAGTTCTCCCAATAAAGCTTTACAGCCTTCTGCAAAGAAAAAAAAAAAA
CTL 76/6
  recognition by CTL 76/6 (TNF release): recognized
CTL 76/6; listed as cDNA clone 2D6
  recognition by CTL 76/6 (TNF release): stimulated TNF release
CTL 22/23
  stimulation of TNF production by CTL clone 22/23: do not stimulate CTL clone 22/23

B4: GAGE-2: cDNA highly related to GAGE, from MZ2-MEL.43 library (nucleic acid)
DNA: ACGCCAGGGAGCTGTGAGGCAGTGCTGTGTGGTTCCTGCCGTCCGGACTCTTTTTCCTCTACTGAGATTCATCTGTGTGAAATATGAGTTGGCGAGGAAGATCGACCTATCGGCCTAGACCAAGACGCTACGTAGAGCCTCCTGAAATGATTGGGCCTATGCGGCCCGAGCAGTTCAGTGATGAAGTGGAACCAGCAACACCTGAAGAAGGGGAACCAGCAACTCAACGTCAGGATCCTGCAGCTGCTCAGGAGGGAGAGGATGAGGGAGCATCTGCAGGTCAAGGGCCGAAGCCTGAAGCTCATAGCCAGGAACAGGGTCACCCACAGACTGGGTGTGAGTGTGAAGATGGTCCTGATGGGCAGGAGATGGACCCGCCAAATCCAGAGGAGGTGAAAACGCCTGAAGAAGGTGAAAAGCAATCACAGTGTTAAAAGAAGACACGTTGAAATGATGCAGGCTGCTCCTATGTTGGAAATTTGTTCATTAAAATTCTCCCAATAAAGCTTTACAGCCTTCTGCAAAGAAAAAAAAAAAA
CTL 76/6
  recognition by CTL 76/6 (TNF release): recognized
CTL 22/23
  stimulation of TNF production by CTL clone 22/23: do not stimulate CTL clone 22/23

B5: GAGE-6: cDNA highly related to GAGE, from MZ2-MEL.43 library (nucleic acid)
DNA: GCCAGGGAGCTGTGAGGCAGTGCTGTGTGGTTCCTGCCGTCCGGACTCTTTTTCCTCTACTGAGATTCATCTGTGTGAAATATGAGTTGGCGAGGAAGATCGACCTATTATTGGCCTAGACCAAGGCGCTATGTACAGCCTCCTGAAGTGATTGGGCCTATGCGGCCCGAGCAGTTCAGTGATGAAGTGGAACCAGCAACACCTGAAGAAGGGGAACCAGCAACTCAACGTCAGGATCCTGCAGCTGCTCAGGAGGGAGAGGATGAGGGAGCATCTGCAGGTCAAGGGCCGAAGCCTGAAGCTGATAGCCAGGAACAGGGTCACCCACAGACTGGGTGTGAGTGTGAAGATGGTCCTGATGGGCAGGAGGTGGACCCGCCAAATCCAGAGGAGGTGAAAACGCCTGAAGAAGGTGAAAAGCAATCACAGTGTTAAAAGAAGACACGTTGAAATGATGCAGGCTGCTCCTATGTTGGAAATTTGTTCATTAAAATTCTCCCAATAAAGCTTTACAGCCTTCTGCAAAAAAAAAAAAAAAA
CTL 76/6
  recognition by CTL 76/6 (TNF release): not antigenic
CTL 22/23
  stimulation of TNF production by CTL clone 22/23: high levels of TNF production

B6: GAGE-5: cDNA highly related to GAGE, from MZ2-MEL.43 library (nucleic acid)
DNA: AGCTGTGAGGCAGTGCTGTGTGGTTCCTGCCGTCCGGACTCTTTTTCCTCTACTGAGATTCATCTGTGTGAAATATGAGTTGGCGAGGAAGATCGACCTATTATTGGCCTAGACCAAGGCGCTATGTACAGCCTCCTGAAGTGATTGGGCCTATGCGGCCCGAGCAGTTCAGTGATGAAGTGGAACCAGCAACACCTGAAGAAGGGGAACCAGCAACTCAACGTCAGGATCCTGCAGCTGCTCAGGAGGGAGAGGATGAGGGAGCATCTGCAGGTCAAGGGCCGAAGCCTGAAGCTGATAGCCAGGAACAGGGTCACCCACAGACTGGGTGTGAGTGTGAAGATGGTCCTGATGGGCAGGAGATGGACCCGCCAAATCCAGAGGAGGTGAAAACGCCTGAAGAAGGTGAAAAGCAATCACAGTGTTAAAAGAAGGCACGTTGAAATGATGCAGGCTGCTCCTATGTTGGAAATTTGTTCATTAAAATTCTCCCAATAAAGCTTTACAGCCTTCTGCAAAGAAAAAAAAAAAA
CTL 76/6
  recognition by CTL 76/6 (TNF release): not antigenic
CTL 22/23
  stimulation of TNF production by CTL clone 22/23: high levels of TNF production
